Measurements reported in patent publication US20070066551, “Aptamer medicinal chemistry” (published 2007).

Key:
Conditions in all cases: label: 5'-32P
IL-23 (full length) [1] = biological target: T1, IL-23 (full length) (Homo sapiens, UniProt Q9NPF7;P29460 Q9NPF7:20-189,P29460:23-328); assay: filter; PBS without Ca/Mg, 0.1 mg/mL BSA, RT 30 min; 13 nM in DPBS with Ca/Mg (Table 5)
Excerpt: (§1) A three-layer filtration medium was used, consisting (from bottom to top) of Protran nitrocellulose (Schleicher & Schuell), Hybond-P nylon (Amersham Biosciences) and GB002 gel blot paper (Schleicher & Schuell). RNA that is bound to protein is captured on the nitrocellulose filter, whereas the non-protein bound RNA is captured on the nylon filter. The gel blot paper was included simply as a supporting medium for the other filters. Following filtration, the filter layers were separated, dried and exposed on a phosphor screen (Amersham Biosciences, Piscataway, N.J.) and quantified using a Storm 860 Phosphorimager® blot imaging system (Amersham Biosciences).
A set of ARC979 (SEQ ID NO 1) derivative aptamers introducing single phosphorothioate substitutions (Glen Research, Sterling, Va.) were chemically synthesized by standard synthesis techniques. In each set of derivatives, single phosphorothioate substitutions were systematically introduced at each internucleotide linkage position resulting in each derivative within one set having an aptamer with a phosphorothioate substitution at a different internucleotide position. These derivatives were gel purified and assayed for IL-23 binding, using the dot blot assay described above under the following binding reaction conditions: 1×PBS (without Ca⁺⁺ or Mg⁺⁺) plus 0.1 mg/mL BSA, for a 30 minute incubation at room temperature. […]

[2] = biological target: T2, von Willebrand Factor (vWF) (UniProt P04275 P04275:764-2813); assay: filter; DPBS with Ca/Mg, 0.1 mg/mL BSA, 24 C
IL-23 (full length) [3] = biological target: T1, IL-23 (full length); assay: filter; DPBS with Ca/Mg, BSA, RT; parent 3.7 nM
Excerpt: as §1
The dot blot binding assay previously described was used to characterize the relative potency of the majority of the aptamers synthesized as compared to the parent molecule, ARC1386. […] KD values were calculated by fitting the equation y=(max/(1+K/protein))+yint using KaleidaGraph (KaleidaGraph v. 3.51, Synergy Software).

[4] = biological target: T2, von Willebrand Factor (vWF); assay: filter; DPBS with Ca/Mg, 0.1 mg/mL BSA, 24 C; remark: listed apart in the source
Excerpt: as §1
A set of ARC1172 (SEQ ID NO 3) derivative aptamers introducing single phosphorothioate substitutions (Glen Research, Sterling, Va.) were chemically synthesized using standard synthesis techniques. In each set of derivatives, single phosphorothioate substitutions were systematically introduced at each internucleotide linkage position resulting in each derivative set having an aptamer with a phosphorothioate substitution at a different internucleotide position. […] KD values for the ARC1172 derivative aptamers were calculated by fitting the equation y=(max/(1+K/protein))+yint using KaleidaGraph (KaleidaGraph v. 3.51, Synergy Software).

T1 sequence (Q9NPF7 20-189, chain 1 of 2): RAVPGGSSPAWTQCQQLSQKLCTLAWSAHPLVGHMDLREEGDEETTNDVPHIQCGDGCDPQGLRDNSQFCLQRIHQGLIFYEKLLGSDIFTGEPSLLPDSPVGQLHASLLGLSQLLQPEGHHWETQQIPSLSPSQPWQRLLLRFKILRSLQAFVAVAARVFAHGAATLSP
T1 sequence (P29460 23-328, chain 2 of 2): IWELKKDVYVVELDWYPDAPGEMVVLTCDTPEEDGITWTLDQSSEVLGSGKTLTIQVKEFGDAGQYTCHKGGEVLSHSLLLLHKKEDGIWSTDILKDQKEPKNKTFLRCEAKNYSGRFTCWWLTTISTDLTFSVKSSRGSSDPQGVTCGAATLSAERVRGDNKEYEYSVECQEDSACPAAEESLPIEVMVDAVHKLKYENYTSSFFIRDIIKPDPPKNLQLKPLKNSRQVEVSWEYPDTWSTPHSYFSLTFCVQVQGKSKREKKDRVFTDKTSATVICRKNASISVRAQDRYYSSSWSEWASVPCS

ACAGGCAAGUAAUUGGGGAGUGCGGGCGGGGUGU (mixed, 2'-deoxy purines, 2'-OMe pyrimidines (dRmY)) [ARC979]
Kd (IL-23 (full length) [1]): 90 nM

GCGUGCAGUGCCUUCGGCCGTGCGGTGCCUCCGUCACGC (mixed, multiple 2'-OMe substitutions as in Table 3; 3'-idT (last t of SEQ)) [ARC1361]
Kd [2]: 7.9 nM

B1: ARC1368 (mixed)
mixed: GCGUGCAGUGCCUUCGGCCGTGCGGTGCCUCCGUCACGC
modifications: as ARC1361 plus PS between 20 and 21 (as printed, mG-s-T); 3'-idT (last t of SEQ)
Kd [2]: 1.8 nM

ACAGGCAAGUAAUUGGGGAGUGCGGGCGGGGTGU (mixed, dRmY; 2'-deoxy dihydrouridine at 32; 3'-idT (last t of SEQ)) [ARC1713]
Kd (IL-23 (full length) [3]): 2.2 nM

ACAGGCAAGTAAUUGGGGAGUGCGGGCGGGGUGU (mixed, dRmY; 2'-deoxy dihydrouridine at 10; 3'-idT (last t of SEQ)) [ARC1709]
Kd (IL-23 (full length) [3]): 2.8 nM

GGCGTGCAGTGCCTTCGGCCGTGCGGTGCCTCCGTCACGCC (ssDNA, 3'-idT (last t of SEQ)) [ARC1172 w/3T]
Kd [4]: 2 nM

GGCGTGCAGTGCCTTCGGCCGTGCGGTGCCTCCGTCACGCC (ssDNA, 3'-idT as printed in Table 3) [ARC1172]
Kd [2]: 2 nM
